Data on seven molecules can be found in PMC2854129, “Spadin, a Sortilin-Derived Peptide, Targeting Rodent TREK-1 Channels: A New Concept in the Antidepressant Drug Design” (PLoS Biology, 2010).

Assay [1] relates to TREK-1. In words: Whole-cell patch-clamp, cultured hippocampal pyramidal neurons. Type of assay: cell-based, mouse. As to conditions: 10 µM aa, K+ blockers, 7 out of 70 recorded neurons, at −50 mV. On the procedure: Cortical neurons were prepared from 14 old mouse embryos, whereas hippocampal neurons were prepared from newborn mice. Briefly, dissected brain areas were dissociated and neurons were plated on polylysine-treated 35 or 60 mm dishes and maintained in culture in Neurobasal medium supplemented with B27, Glutamax, and antibiotics for 2 to 3 wk before to be used for electrophysiological or biochemical experiments.
Supplementary file pbio.1000355.s004.tif: Figure S4 Effects of spadin on cultured pyramidal neurons from hippocampus. (A) Cultured pyramidal neuron from hippocampus, with on top, the patch-clamp pipette. Neurons were chosen according to their morphology. (B) Current recorded in response to ramps of potential obtained in the various conditions indicated (aa, arachidonic acid: 10 µM; Spadin: 1 µM; Fluoxetine: 20 µM). Neurons were recorded in the whole-cell configuration of the patch-clamp technique. In voltage-clamp, ramps of potential from −90 mV to 70 mV were applied every 10 s. The % variation of the current amplitude was always measured at −50 mV. The currents were recorded in response to such ramps in control conditions and in the presence of a cocktail of potassium blockers suitable to isolate the TREK currents (10 mM tetraethyl ammonium (TEA), 3 mM 4-aminopyridine (4-AP), 50 nM charybdotoxin, 10 µM glibenclamide, 100 nM apamin). […] The blocks were reversible. (C) Time course of spadin and fluoxetine effects. Applications are indicated by the horizontal bars. (2.03 MB TIF) Click here for additional data file.
(The patch-clamp technique gives a direct electrical read-out from membranes.)

The target of assay [2] is T1, TREK-1 (Mus musculus, UniProt P97438).
T1 sequence (P97438 1-426): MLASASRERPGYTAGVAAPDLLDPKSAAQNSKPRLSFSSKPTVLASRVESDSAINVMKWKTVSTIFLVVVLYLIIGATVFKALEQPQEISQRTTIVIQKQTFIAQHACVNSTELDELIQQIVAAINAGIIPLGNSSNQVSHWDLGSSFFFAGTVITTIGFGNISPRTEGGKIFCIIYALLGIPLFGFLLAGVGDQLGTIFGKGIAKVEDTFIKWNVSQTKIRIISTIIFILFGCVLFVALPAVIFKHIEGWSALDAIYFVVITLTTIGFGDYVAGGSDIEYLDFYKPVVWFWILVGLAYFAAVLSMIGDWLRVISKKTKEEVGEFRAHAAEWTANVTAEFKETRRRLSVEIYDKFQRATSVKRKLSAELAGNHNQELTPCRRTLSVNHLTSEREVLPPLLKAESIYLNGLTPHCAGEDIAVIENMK
In words: Whole-cell patch-clamp, TREK-1 transfected COS-7 cells. Type of assay: cell-based. Further details: GFP; expressed in transfected cells; host or cells: COS-7 cells, DEAE-dextran transfection. As to conditions: 10 µM aa. On the procedure:
All electrophysiological experiments were done on COS-7 cells seeded at a density of 20,000 cells/35-mm dish 24 h before transfection. Cells were transfected by the classical DEAE-dextran method with TREK-1-GFP plasmids (0.1 µg/µL). Cells were visualized 48–72 h after transfection using fluorescence.
The whole-cell patch-clamp technique was used to evaluate TREK-1 potassium channel current by using a RK 400 patch-clamp amplifier (Axon Instruments, USA), as previously described. Currents were lowpass filtered at 3 kHz, digitized at 10 kHz using a 12-bit analog-to-digital converter. […] The bath solution contained (in mM) 150 NaCl, 5 KCl, 3 MgCl2, 1 CaCl2, and 10 HEPES, adjusted to pH 7.4 with NaOH; the patch pipette solution contained (in mM) 155 KCl, 3 MgCl2, 5 EGTA, and 10 HEPES, adjusted to pH 7.2 with KOH. Cells were clamped at −80 mV and voltage changes were either applied by ramp (from −100 to 50 mV, 1 s in duration) or by step (from −100 to 40 mV, 1.5 s in duration). Cells were continuously superfused with a microperfusion system. The pipette capacitance was not subtracted from total membrane capacitance and there was no leak subtraction. […]
Pclamp software was used to analyze currents recorded in the whole-cell mode measured at 0 mV. Results are expressed as means ± SD. […]

A further assay concerns TREK-1 channel. In words: Whole-cell patch-clamp, hippocampal CA3 pyramidal neurons in brain slices, wild-type mice. Particulars: 12 out of 28 recorded neurons; K+ blockers; aa 10 µM; mean ± SEM, n = 12. Type of assay: cell-based, mouse.
For assay [3], the target named is TREK-1 channel (KCNK2), transfected in COS-7 cells (mouse) (UniProt P97438).
Assay [4] addresses T1, TREK-1. Briefly: Competition binding, 125I-spadin, TREK-1 transfected COS-7 cell homogenates. Set-up: expressed in transfected cells; host or cells: COS-7 cells, DEAE-dextran transfection. As to conditions: 0.2 nM 125I-spadin; TREK-1 transfected COS-7 homogenates; Tris-HCl pH 7.4, 0.1% BSA; mean of duplicates from 2 to 5 independent experiments. On the procedure: For competition experiments, homogenates from TREK-1 transfected COS-7 or C13NJ cells were incubated with 0.2 nM ^125I-spadin or ^125I-NT (200,000 cpm in 250 µl) iodinated and purified as previously described. Incubations were performed in 50 mM Tris-HCl, pH 7.4 containing 0.1% BSA in the presence of increasing concentrations of non-radioactive spadin or NT (10^−10 to 10^−5M). Incubations were terminated by addition of 2 ml of ice-cold binding buffer followed by filtration through cellulose acetate filters (Sartorius, Göttingen, Germany) and washing twice with 2 ml of ice-cold buffer. Radioactivity on filters was counted with a gamma-counter.

In assay [5] the test system is non-transfected COS-7 cells. Briefly: 125I-spadin binding to non-transfected COS-7 cells.
The target in assay [6] is T1, TREK-1. In words: Association kinetics and internalization of 125I-spadin on whole COS-7 cells expressing TREK-1. Type of assay: cell-based. Set-up: expressed in transfected cells; host or cells: COS-7 cells, DEAE-dextran transfection. As to conditions: 37°C; for intracellular (acid-NaCl wash resistant) fraction of total bound 125I-spadin: 30 min, acid-NaCl wash 2 min. On the procedure:
Cells, grown on 12 mm multiwell-dishes, were incubated with 0.2 nM ^125I-spadin for various times at 37°C in an Earle's Tris-Hepes buffer (cell binding buffer). Incubations were terminated by washing cells twice with the binding buffer or with the same buffer containing 0.5 M NaCl, pH 4, for 2 min to remove non-sequestrated radioactivity (acid-NaCl wash). Cells were harvested with 1 ml of 0.1 N NaOH and counted in a gamma-counter. Non-specific binding was determined in the presence of 10 µM unlabeled spadin.

The next assay addresses NTSR3/Sortilin (UniProt Q99523). As to conditions: cited from earlier work.
Assay [7] addresses T2, TREK-1 (Mus musculus, UniProt P97438).
T2 chain: T1 sequence (P97438 1-426)
Briefly: radioligand competition. Background: Displacement assays read how much labelled ligand stays bound in the presence of the test substance.

In assay [8] the target is T2, TREK-1. In words: radioligand binding.

Where no end group is shown, it is not given here. The star is where a group is joined. 125I = radioactive iodine label on Tyr, [125I]*

Sequence of NTSR3/Sortilin (Q99523 78-755): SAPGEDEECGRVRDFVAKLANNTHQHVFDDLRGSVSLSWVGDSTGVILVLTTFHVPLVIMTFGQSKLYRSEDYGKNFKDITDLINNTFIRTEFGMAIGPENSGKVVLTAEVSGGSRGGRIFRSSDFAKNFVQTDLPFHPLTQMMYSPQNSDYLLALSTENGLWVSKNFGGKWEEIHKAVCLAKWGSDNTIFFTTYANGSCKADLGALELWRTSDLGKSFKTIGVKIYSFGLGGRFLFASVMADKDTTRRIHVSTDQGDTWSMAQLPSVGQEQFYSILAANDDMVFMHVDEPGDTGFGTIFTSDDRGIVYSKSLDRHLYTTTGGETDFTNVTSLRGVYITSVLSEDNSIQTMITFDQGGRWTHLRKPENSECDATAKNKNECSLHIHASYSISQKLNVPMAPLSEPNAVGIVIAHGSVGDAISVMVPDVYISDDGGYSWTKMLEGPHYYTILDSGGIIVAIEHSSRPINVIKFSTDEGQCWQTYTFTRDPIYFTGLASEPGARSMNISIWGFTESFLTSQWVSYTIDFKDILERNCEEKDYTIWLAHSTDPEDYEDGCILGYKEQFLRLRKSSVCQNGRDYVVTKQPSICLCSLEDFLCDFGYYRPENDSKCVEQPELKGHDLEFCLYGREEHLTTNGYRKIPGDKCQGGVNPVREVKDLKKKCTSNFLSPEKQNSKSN
Sequence of sortilin propeptide 1-44 (Q99523 34-77): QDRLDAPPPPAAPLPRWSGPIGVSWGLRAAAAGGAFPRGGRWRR

Regarding `CCCCC/C=C\C/C=C\C/C=C\C/C=C\CCCC(=O)O` [arachidonic acid], the “increase of remaining current by arachidonic acid” value in the assay on TREK-1 [1] is recorded as “about 50%”. In addition, at TREK-1 [2] (as previously described [21]), the “activation of TREK-1 basal channel activity” value was “strongly and reversibly activated”. The “increase in amplitude of remaining current by arachidonic acid” value in the assay with TREK-1 channel was 23.3%±4.8%.
In [3], “full length propeptide of NTSR3/Sortilin (Gln1-Arg44)” displayed a block of the arachidonic acid-stimulated TREK-1 current at 0 mV, whole-cell patch clamp, TREK-1 transfected COS-7 cells, 500 nM propeptide of 41%.
Take “QDRLDAPPPPAAPLPR [Gln1-Arg16, N-terminal fragment of the full length propeptide]”: at TREK-1 [2] (after 90 s of application, Figure S2), the “effect on aa-induced current increase” value is “unable to inhibit the current increase”. Besides, the “affinity for TREK-1” value at TREK-1 [4] turned out to be 1 µM.
In the case of “^125I-spadin: monoiodinated spadin (on Tyr0), HPLC purified (Y(125I)APLPRWSGPIGVSWGLR)”, in assay [5], the “125I-spadin binding” value is “totally devoid of ^125I-Spadin binding”. For the same molecule, in the assay with TREK-1 [6] (0.2 nM 125I-spadin, whole COS-7 cells expressing TREK-1), the “time to plateau of cell-associated radioactivity” value was at most 30 min. In addition, the “intracellular (acid-NaCl wash resistant) fraction of total bound 125I-spadin” value with TREK-1 [6] was 80%; in the assay with TREK-1 [6] (listed as 125I-labelled spadin), “about 80%”.
Consider “sortilin propeptide 1-44 (from UniProt Q99523)”, for which the Kd (commonly the free concentration of one partner at which half of the binding sites on the other are occupied at equilibrium, for simple one-to-one binding) with NTSR3/Sortilin is 5 nM.
For QDRLDAPPPPAAPLPR [propeptide N-terminal fragment Gln1-Arg16 1-16], the Kd with TREK-1 [7] was found to be 1000 nM.
In the case of APLPRWSGPIGVSWGLR [spadin], the Kd in the assay with TREK-1 [8] is about 10 nM.
